These results are taken from US20240117030A1 (Pfizer, published 2024).

For assay [1], the target named is T1, biotinylated human IL-33 wild-type (WT), reduced with 3 mM DTT (human, UniProt O95760 112-270, limits assumed, biotinylated (site not stated)).
T1 sequence (looked up): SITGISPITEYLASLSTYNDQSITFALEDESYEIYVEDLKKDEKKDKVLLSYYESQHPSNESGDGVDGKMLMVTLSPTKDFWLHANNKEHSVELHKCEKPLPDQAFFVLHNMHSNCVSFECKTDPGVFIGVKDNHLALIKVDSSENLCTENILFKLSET
Put plainly: KinExA solution affinity, fixed antigen format, global fit.

Assay [2] addresses T2, recombinant human IL-33 (R&D Systems 3625-IL), reduced with DTT (human, UniProt O95760 112-270, limits assumed).
T2 sequence (looked up): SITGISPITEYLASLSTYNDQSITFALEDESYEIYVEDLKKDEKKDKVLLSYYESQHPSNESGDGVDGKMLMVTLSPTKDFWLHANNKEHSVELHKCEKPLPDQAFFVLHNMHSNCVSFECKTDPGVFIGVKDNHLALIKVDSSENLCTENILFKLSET
Kind of assay: cell-based or functional assay.

Assay [3] concerns the target T2, recombinant human IL-33 (R&D Systems …). Put plainly: cell-based or functional assay. The source holds these as a separate data set.
Assay [4] has as its target T3, IL-33 mm2 (human, UniProt O95760 112-270, limits assumed).
T3 sequence (looked up): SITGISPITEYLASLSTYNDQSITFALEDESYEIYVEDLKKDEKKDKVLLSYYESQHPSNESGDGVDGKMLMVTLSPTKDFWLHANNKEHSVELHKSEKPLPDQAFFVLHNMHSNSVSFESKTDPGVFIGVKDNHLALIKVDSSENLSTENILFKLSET
Put plainly: cell-based or functional assay.

For assay [5], the target named is T4, recombinant human IL-33 (human, UniProt O95760 112-270, limits assumed).
T4 sequence (looked up): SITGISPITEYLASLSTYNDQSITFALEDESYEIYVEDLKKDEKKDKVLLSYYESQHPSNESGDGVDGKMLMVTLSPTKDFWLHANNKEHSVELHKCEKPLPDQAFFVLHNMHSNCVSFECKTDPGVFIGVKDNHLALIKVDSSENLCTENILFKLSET
Put plainly: cell-based or functional assay.

B1: IL33-0726 (antibody, human IgG1, kappa, V domains shown)
VH: EVQLVESGGGLVQPGGSLRLSCAASGFTFSSYWMYWVRQAPGKGLEWVAAITPNAGEDYYPESVKGRFTISRDNAKNSLYLQMNSLRAEDTAVYYCARGQYYYTKYSLGYWGQGTLVTVSS
VL: DIQMTQSPSSLSASVGDRVTITCRASQPIHNHLDWYQQKPGKAPKLLIYFGKNLQEGVPSRFSGSGSGTDFTLTISSLQPEDFATYYCFQYKKGWSFGGGTKVEIKR
notes: also called IL33-0726 IgG; IL13433-0726
Consider B1, for which the Kd in assay [1] was below 0.000237 nM. In addition, in assay [2], the “IC50 [pM] versus human reduced IL-33 (R&D), Experiment 2 (HEK-Blue SEAP)” value was 6 pM. Moreover, the “IC50 [nM] versus reduced human IL-33 (R&D), IC50 (AVE)” value in assay [3] is 0.008 nM.

B2: IL33-158LS (antibody, V domains shown)
VH: EVQLVESGGGLVQPGGSLRLSCAASGFTFSSYWMYWVRQAPGKGLEWVAAITPNAGEDYYPESVKGRFTISRDNAKNSLYLQMNSLRAEDTAVYYCARGHYYYTSYSLGYWGQGTLVTVSS
VL: DIQMTQSPSSLSASVGDRVTITCKASQNINKHLDWYQQKPGKAPKLLIYFTNNLQTGVPSRFSGSGSGTDFTLTISSLQPEDFATYYCFQYNQGWTFGGGTKVEIK
B2: the “IC50 (mean), IFNg Whole Blood (IL-12 plus IL-33 mm2-Cys)” value in assay [4] is 0.0162 nM. The “IC50 (mean), HEK-Blue IL-33 SEAP” value in assay [5] was 0.0562 nM.
